# Assay: yeast display, Sf9 membrane polyspecificity reagent, FACS + sequencing; frameworks hold sequencing errors
# Procedure, shortened: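 A nanobody's polyreactivity label depends on the gate it was sorted from. Yeast display cells were stained with 10% biotinylated, detergent-solubilized Sf9 membrane reagent for 1 hour at 4 °C, enriched on streptavidin microbeads and sorted by FACS. The low and high (top ~1%) gates were set on anti-HA fluorescence for expression and streptavidin fluorescence for reagent binding.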
row,Sequence,polyreactivity (PSR sort gate)
1,QVQLVESGGGLVQAGGSLRLSCAASGFIFTLYAMGWYRQAPGKESELVASISSGGSTNYADSVKGRFTISRDNAKNTVYFQMNSLKPEDTAVYYCAAYYYFKSDRFSGRYGRYYWGQGTQVTVSS,high polyreactivity
2,QVQLVESGGGLVQAGGSLRLSCAASGFIFTLYTMGWYRPAPGKERELVAAIDKKGSTYYADSVKGRFTISRDNAKNTVYLQMNSLKPEDTAVYYCAADDRYRGNREDYWGQGTQVTVSS,low polyreactivity
3,QVQLVESGGGLVQAGGSLRLSCAASGFIFTRYAMGWYRQAPGKERELVAAISASGGSTYYADSVKGRFTISRDNAKNTVYLQMNSLKPEDTAVYYCAAVPYRYTYDYWGQGTQVTVSS,high polyreactivity
4,QVQLVESGGGLVQAGGSLRLSCAASGFIFTRYAMGWYRQAPGKERELVAAITRSGGRTYYADSVKGRFTISRDNAKNTVYLQMNSLKPEDTAVYYCAAEGSVGLYGLIMHYWGQGTQVTVSS,high polyreactivity
5,QVQLVESGGGLVQAGGSLRLSCAASGFIFTSYAMGWYRQAPGKERELVAAISKRGGSTYYADSVKGRFTISRDNAKNTVYLQMNSLKPEDTAVYYCATRYPQPYSPGYTYDYWGLGTQVTVSS,high polyreactivity
6,QVQLVESGGGLVQAGGSLRLSCAASGFIFTVYAMGWSRQAPGKERELVAAISRGGGSTSYADSVKGRFTISRDNAKNTVYLQMNSLKPEDTAVYYCNAKYKYSRGYDYWGQGTQVTVSS,high polyreactivity
7,QVQLVESGGGLVQAGGSLRLSCAASGFIFTWYDMGWYRQAPGKERELVAAISRSGGSTYYADSVKGRFTISRDNAKNTVYLQMNSLKPEDTAVYYCIVYRSKKRYGWGEDDYWGQGSQVTVSS,high polyreactivity
8,QVQLVESGGGLVQAGGSLRLSCAASGFIFTWYTMGWSRQAPGKERELVAAITSGGNTNYADSVKGRFTISRDNAKNTVYLQMNSLKPEDTSVYYCALGYLASRLKFAKYDYWGQGTQVNVSS,high polyreactivity
9,QVQLVESGGGLVQAGGSLRLSCAASGFIFTYNDMGWYRQAPGKERELVASISWDGGRTYYADSVKRRFTISRDNAKNTVYLQMNSLKPEDTADYYWDKRLGGSPIQARGDYWGQCTQVTVSS,low polyreactivity
10,QVQLVESGGGLVQAGGSLRLSCAASGFIFTYYAMGWYRQAPGKERELVAAIRRGGNTYYADSVKGRFTISRDNAKNTVYLQMNSLKPEDTAVYYCAASAGPRASYYYWGQGTQVTVSS,high polyreactivity
11,QVQLVESGGGLVQAGGSLRLSCAASGFIFTYYAMGWYRQAPGKERELVAAISSSGGRTAYADSVKGRFTISRDNAKNTVYLQMNSLKPEDTAVYFCNARGTYRVANYDYWGQGTQVTVSS,high polyreactivity
12,QVQLVESGGGLVQAGGSLRLSCAASGFIFVDYAMGWYRQAPGKERELVAAISSSGSTTYADSVKGRFTISRDNAKNIVYLQMNSLKPEDTAVYYCAAGLPRVLKDATFDYWGQGTQVTVSS,low polyreactivity
13,QVQLVESGGGLVQAGGSLRLSCAASGFIFVDYDMGWYRQAPGKERELVAAITDSGTSTYYADSVKGRFTISRDNAKNTVYLQMNSLKPEDTAVYYCNTDVSPSFDYWGQGTQVTVSS,low polyreactivity
14,QVQLVESGGGLVQAGGSLRLSCAASGFIFVGNAMGGYRQAPGKERELVAAITSTDNTTYADSVKGRFTISRDNAKNTVYLQMNSLKPEDTAVYYCNARGYPYLYGYDYWGQGTQVTVSS,low polyreactivity
15,QVQLVESGGGLVQAGGSLRLSCAASGFIFVLYSMGWYRQAPGKERELVAGITGSTDTYYADSVKGRFTISRDNAKNTVYLQMNSLKPEDTAVYYCAAGRLRIWYDSWGQGTQVTVSS,low polyreactivity
16,QVQLVESGGGLVQAGGSLRLSCAASGFIFVNKAMGWYRQAPGKERELVATISRGGSTNYADSVKGRFTISRDNAKNTVYLQMNSLKPEDTAVYYCNARRSVKVYGVDYWGQGTQVTVSS,high polyreactivity
17,QVQLVESGGGLVQAGGSLRLSCAASGFIFVQNVMGWYRQAPGKERELVAAITWRGTSTYYADSVKGRFTISRDNAKNTVYLLMNSLKPEDTAVYDWNVDLQEDCEEYDYWGQGTQVTVSS,low polyreactivity
